Results published in doi:10.1101/2024.06.14.599074, “A higher order PUF complex is central to regulation of C. elegans germline stem cells” (bioRxiv, 2024).
Substitutions are numbered along the chain they refer to. Names may count otherwise. “And” between values parts separate entries of the source, which are not always exact repeats. Identical values can stand only once.

T1: C. elegans FBF-2 RBD+CT (residues 164–632) (C. elegans, UniProt Q09312 164-632)
T1 construct: His6-SUMO removed with Ulp1; source: E. coli BL21-CodonPlus (DE3)-RIL, purified (Ni-NTA, heparin, Superdex 75); for SEC-MALS and cryo-EM coexpressed with GST-fused LST-1^19-98 and purified as a complex
T1 sequence (looked up): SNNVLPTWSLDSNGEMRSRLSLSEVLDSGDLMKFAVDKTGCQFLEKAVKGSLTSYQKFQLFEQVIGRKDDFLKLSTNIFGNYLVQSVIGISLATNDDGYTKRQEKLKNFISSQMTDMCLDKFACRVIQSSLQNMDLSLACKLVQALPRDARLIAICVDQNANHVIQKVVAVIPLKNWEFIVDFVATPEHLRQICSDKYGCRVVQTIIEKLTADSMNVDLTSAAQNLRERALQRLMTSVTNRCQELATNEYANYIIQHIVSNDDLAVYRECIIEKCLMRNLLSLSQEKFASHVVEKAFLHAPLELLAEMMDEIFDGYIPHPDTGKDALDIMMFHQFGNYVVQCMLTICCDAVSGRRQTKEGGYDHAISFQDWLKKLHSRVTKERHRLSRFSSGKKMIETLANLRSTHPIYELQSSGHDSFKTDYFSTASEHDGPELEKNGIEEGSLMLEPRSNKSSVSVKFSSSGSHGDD

T2: FBF-2 RBD protein (residue 164–575) (C. elegans, UniProt Q09312 164-575)
T2 construct: Tag cleaved with TEV protease (construct derived from an earlier pGEX6p FBF-2 RBD construct); source: E. coli, purified (as FBF-2 RBD+CT); for SEC-MALS and cryo-EM coexpressed with GST-fused LST-1^19-98 and purified as a complex
T2 sequence (looked up): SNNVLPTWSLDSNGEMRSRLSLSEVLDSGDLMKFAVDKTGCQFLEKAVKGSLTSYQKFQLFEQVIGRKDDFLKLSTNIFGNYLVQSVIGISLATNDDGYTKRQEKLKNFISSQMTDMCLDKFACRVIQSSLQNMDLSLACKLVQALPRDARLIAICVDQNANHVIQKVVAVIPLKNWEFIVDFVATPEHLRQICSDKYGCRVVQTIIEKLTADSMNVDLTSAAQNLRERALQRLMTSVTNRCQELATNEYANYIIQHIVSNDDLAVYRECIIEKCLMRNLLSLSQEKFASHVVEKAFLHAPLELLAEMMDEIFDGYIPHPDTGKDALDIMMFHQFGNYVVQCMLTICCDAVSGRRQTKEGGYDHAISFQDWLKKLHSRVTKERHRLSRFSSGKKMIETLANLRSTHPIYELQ

B1: LST-1^19-98 (LST-1 residues 19–98, spanning PIM-A and PIM-B) (domain or fragment, C. elegans, UniProt P91820 19-98, looked up)
chain: STIAYSKSQHEAPKQLLQLRSEIKPLIPLNQPSNFWESSQDSGVLSSLSSSPQQRSGLRSQKLHLTYIEKNKRVRAMIPQ
notes: LST-1, C. elegans, residues 19–98 of the N-terminal intrinsically disordered region, with PIM-A and PIM-B; Codon-optimized synthetic cDNA in the pSMT3 vector; tag removed with Ulp1; also called LST-1 peptide (residues 19–98); source: E. coli BL21-CodonPlus (DE3)-RIL, purified (Ni-NTA, heparin, Ni-NTA pass, Superdex 75)
B2: C26-labeled LST-1^19-98 (S26C, Cy5) (domain or fragment, C. elegans, UniProt P91820 19-98, looked up)
chain: B1 chain with S8C
modifications: Cy5 on C26 via cysteine-maleimide conjugation
notes: LST-1, C. elegans, residues 19–98, cysteine in place of S26, five residues upstream of PIM-A; Probably made like wild-type LST-1^19-98 (His6-SUMO, cleaved); source: purified
B3: C74-labeled LST-1^19-98 (S74C, Cy5) (domain or fragment, C. elegans, UniProt P91820 19-98, looked up)
chain: B1 chain with S56C
modifications: Cy5 on C74 via cysteine-maleimide conjugation
notes: LST-1, C. elegans, residues 19–98, cysteine in place of S74, five residues upstream of PIM-B; Probably made like wild-type LST-1^19-98 (His6-SUMO, cleaved); source: purified
B4: LST-1^19-98(A^m) (domain or fragment, C. elegans, UniProt P91820 19-98, looked up)
chain: B1 chain with K14A, L17A
notes: LST-1, C. elegans, residues 19–98, PIM-A mutated, PIM-B intact; also called LST-1 A^m; K32A/L35A double mutant in PIM-A; source: E. coli, purified (same protocol as for WT protein)
B5: LST-1^19-98(B^m) (domain or fragment, C. elegans, UniProt P91820 19-98, looked up)
chain: B1 chain with K62A, L65A, Y67A
notes: LST-1, C. elegans, residues 19–98, PIM-B mutated, PIM-A intact; also called LST-1 B^m; K80A/L83A/Y85A triple mutant in PIM-B; source: E. coli, purified (same protocol as for WT protein)
B6: LST-1^19-98 from the GST fusion coexpressed with FBF-2 (domain or fragment, C. elegans, UniProt P91820 19-98, looked up)
chain: B1 chain
notes: LST-1, C. elegans, residues 19–98; GST cleaved off with TEV protease; also called GST-LST-1^19-98

How the values were obtained:
[1] = biological target: T1, C. elegans FBF-2 RBD+CT (residues …); assay: ITC; LST-1 (100–400 μM) titrated from the syringe into the cell containing FBF-2 (10–30 μM); 20 °C; 20 mM HEPES pH 7.4, 150 mM NaCl, 0.5 mM TCEP; no RNA; one-site model; two technical replicates; details: both partners purified
[2] = biological target: T2, FBF-2 RBD protein (residue 164–575); assay: as above; details: both partners purified
[3] = biological target: T1, C. elegans FBF-2 RBD+CT (residues …); assay: cell-based or functional assay
[4] = biological target: T2, FBF-2 RBD protein (residue 164–575); assay: FRET or BRET; 2 μM unlabeled FBF-2 RBD pre-incubated with Cy5-labeled LST-1^19-98 (20, 40, 80 nM), then 20 nM 5′-Cy3-labeled gld-1 FBEa-FBEa* RNA; room temperature; FRET from Cy3 in the RNA to Cy5 in LST-1; details: both partners purified
[5] = biological target: T1, C. elegans FBF-2 RBD+CT (residues …); assay: SEC-MALS; purified FBF-2 RBD+CT or RBD/LST-1^19-98 protein (~30 μM) with 29-nt gld-1 FBEa-FBEa* RNA; Superdex-200 10/300 GL; 20 mM HEPES pH 7.4, 150 mM NaCl, 2 mM DTT; details: both partners purified
[6] = biological target: T2, FBF-2 RBD protein (residue 164–575); assay: as above; details: both partners purified

| Binder | Kd [1] | dH [1] | stoichiometry N [1] | Kd [2] | dH [2] | stoichiometry N [2] | EMSA: RNA-binding affinity of FBF-2 RBD+CT for gld-1 FBEa-FBEa* RNA with 10 μM LST-1^19-98 against without LST-1 [3] | binding result [4] | stoichiometry N [5] | stoichiometry N [6] |
| --- | --- | --- | --- | --- | --- | --- | --- | --- | --- | --- |
| B1 | 1100 nM and 1900 nM | -14.8 kcal/mol and -10.8 kcal/mol | 0.5 sites and 0.57 sites | 480 nM and 520 nM | -33.2 kcal/mol and -37.5 kcal/mol | 0.46 sites | 4 fold | – | – | – |
| B2 | – | – | – | – | – | – | – | binds | – | – |
| B3 | – | – | – | – | – | – | – | binds | – | – |
| B4 | 3700 nM and 2800 nM | -11.4 kcal/mol and -11.5 kcal/mol | 1.02 sites and 0.98 sites | 130 nM and 120 nM | -15.3 kcal/mol and -16.5 kcal/mol | 1.15 sites and 1.05 sites | – | – | – | – |
| B5 | 24100 nM and 46200 nM | -11.1 kcal/mol and -11.5 kcal/mol | 1.06 sites and 0.89 sites | 1460 nM and 1540 nM | -12.1 kcal/mol and -12.5 kcal/mol | 0.83 sites and 0.86 sites | – | – | – | – |
| B6 | – | – | – | – | – | – | – | – | 2 FBF-2 per LST-1 | 2 FBF-2 per LST-1 |
